Source: patent US20200317768A1 (published 2020)

Assays:
[1] = molecular target: T1, cynomolgus monkey FcγRIIIaS extracellular domain, C-terminal His-tag (cynomolgus monkey, UniProt A3RFZ7 21-206 (rhesus entry)); experiment: SPR (BIACORE), antibody captured, soluble FcgR as analyte, 25C
T1 construct: also called cyno FcγRIIIaS; FcgRIIIaS; not shown: His-tag added to the C-terminus
Experimental: (§1) The kinetic analysis of interactions between these antibodies and FcγR was carried out using BIACORE® T200 or BIACORE® 4000 (GE Healthcare). HBS-EP+ (GE Healthcare) was used as the running buffer, and the measurement temperature was set to 25° C. A chip produced by immobilizing Protein A. Protein A/G or mouse anti-human IgG kappa light chain (BD Biosciences) onto a Series S Sensor Chip CM4 or CM5 (GE Healthcare) by the amine-coupling method was used. […] After the measurement, the antibody captured on the chip was washed off by allowing reaction with 10 mM glycine-HCl, pH1.5 and 25 mM NaOH so that the chip was regenerated and used repeatedly. The sensorgrams obtained as measurement results were analyzed by the 1:1 Langmuir binding model using the BIACORE® Evaluation Software to calculate the binding rate constant ka (L/mol/s) and dissociation rate constant kd (l/s), and the dissociation constant KD (mol/L) was calculated from these values. […] Regarding such interactions, KD values were calculated using the following 1:1 binding model described in BIACORE® T100 Software Handbook BR1006-48 Edition AE.
(§2) The behavior of interacting molecules according to the 1:1 binding model on BIACORE® can be described by Equation 1: Req=C·R max/(KD+C)+RI, wherein, Req is a plot of steady-state binding levels to analyte concentration. C is concentration, RI is bulk refractive index contribution in the sample, and Rmax is analyte binding capacity of the surface. When this equation is rearranged, KD can be expressed as Equation 2: KD=C·Rmax/(Req−RI)−C. KD can be calculated by substituting the values of Rmax, RI, and C into Equation 1 or Equation 2. From the current measurement conditions, RI=0, C=2 μmol/L can be used.

[2] = molecular target: T2, human FcγRIIb extracellular domain, C-terminal His-tag (human, UniProt P31994 43-217); experiment: as above
T2 construct: also called FcgRIIb; not shown: His-tag added to the C-terminus
T2 sequence: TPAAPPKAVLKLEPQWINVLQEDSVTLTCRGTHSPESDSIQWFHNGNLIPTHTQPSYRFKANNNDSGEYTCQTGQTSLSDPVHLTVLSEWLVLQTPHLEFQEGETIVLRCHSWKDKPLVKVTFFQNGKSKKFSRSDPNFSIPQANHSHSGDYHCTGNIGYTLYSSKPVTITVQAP
Experimental: as §1, §2

[3] = molecular target: T3, human FcγRIIaH extracellular domain, C-terminal His-tag (human, UniProt P12318 34-217); experiment: SPR; KD of SG1 divided by KD of variant;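 also: relative to parent M103205H795-SG1 carrying the SG1 human heavy chain constant region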
T3 construct: also called human FcγRIIa (type H); FcgRIIaH; not shown: His-tag added to the C-terminus
T3 sequence: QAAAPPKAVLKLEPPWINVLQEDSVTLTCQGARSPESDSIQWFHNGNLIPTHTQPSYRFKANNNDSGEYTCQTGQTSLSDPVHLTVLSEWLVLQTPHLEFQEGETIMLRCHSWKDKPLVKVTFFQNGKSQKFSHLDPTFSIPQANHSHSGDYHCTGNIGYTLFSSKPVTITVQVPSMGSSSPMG
Experimental: as §1

[4] = molecular target: T4, human FcγRIIaR extracellular domain, C-terminal His-tag (human, UniProt P12318 34-217); experiment: SPR; KD of SG1 divided by KD of variant;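 also: relative to parent M103205H795-SG1 carrying the SG1 human heavy chain constant region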
T4 construct: also called human FcγRIIa (type R); FcgRIIaR; not shown: His-tag added to the C-terminus
T4 chain: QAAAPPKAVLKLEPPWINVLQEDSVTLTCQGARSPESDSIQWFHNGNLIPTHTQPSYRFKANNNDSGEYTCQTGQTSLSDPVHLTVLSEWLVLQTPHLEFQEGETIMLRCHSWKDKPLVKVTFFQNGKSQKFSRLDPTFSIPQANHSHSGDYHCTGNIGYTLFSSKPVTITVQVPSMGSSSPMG
Experimental: as §1

[5] = molecular target: T5, cynomolgus monkey FcγRIIb extracellular domain, C-terminal His-tag (cynomolgus monkey); experiment: SPR; KD of SG1 divided by KD of variant;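 also: relative to parent M103205H795-SG1 carrying the SG1 human heavy chain constant region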
T5 construct: also called cyno FcγRIIb; cynoFcγRIIb; not shown: His-tag added to the C-terminus
T5 chain: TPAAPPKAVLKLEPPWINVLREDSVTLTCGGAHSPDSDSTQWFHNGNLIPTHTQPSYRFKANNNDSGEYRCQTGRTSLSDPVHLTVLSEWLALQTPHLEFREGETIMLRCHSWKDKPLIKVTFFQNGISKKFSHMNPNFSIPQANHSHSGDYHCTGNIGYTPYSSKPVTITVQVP
Experimental: as §1

[6] = molecular target: T6, cynomolgus monkey FcγRIIa2 extracellular domain, C-terminal His-tag (cynomolgus monkey); experiment: SPR; KD of SG1 divided by KD of variant;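 also: relative to parent M103205H795-SG1 carrying the SG1 human heavy chain constant region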
T6 construct: also called cyno FcγRIIa2; FcgRIIa2; not shown: His-tag added to the C-terminus
T6 chain: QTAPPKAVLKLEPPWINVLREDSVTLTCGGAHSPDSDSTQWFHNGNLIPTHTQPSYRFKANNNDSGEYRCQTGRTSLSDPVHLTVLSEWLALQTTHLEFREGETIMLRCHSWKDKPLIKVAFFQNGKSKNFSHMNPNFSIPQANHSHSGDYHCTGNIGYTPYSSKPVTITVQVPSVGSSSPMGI
Experimental: as §1

[7] = molecular target: T7, human FcγRIIIaV extracellular domain, C-terminal His-tag (human, UniProt P08637 17-208); experiment: SPR; KD of SG1 divided by KD of variant
T7 construct: also called FcgRIIIaV; not shown: His-tag added to the C-terminus
Experimental: as §1

[8] = molecular target: T1, cynomolgus monkey FcγRIIIaS …; experiment: SPR; KD of SG1 divided by KD of variant
Experimental: as §1

[9] = molecular target: T2, human FcγRIIb extracellular domain, …; experiment: SPR; KD of SG1 divided by KD of variant
Experimental: as §1

[10] = molecular target: T8, cynomolgus monkey FcγRIIa3 extracellular domain, C-terminal His-tag (cynomolgus monkey); experiment: SPR; KD of SG1 divided by KD of variant
T8 construct: also called cyno FcγRIIa3; FcgRIIa3; not shown: His-tag added to the C-terminus
T8 chain: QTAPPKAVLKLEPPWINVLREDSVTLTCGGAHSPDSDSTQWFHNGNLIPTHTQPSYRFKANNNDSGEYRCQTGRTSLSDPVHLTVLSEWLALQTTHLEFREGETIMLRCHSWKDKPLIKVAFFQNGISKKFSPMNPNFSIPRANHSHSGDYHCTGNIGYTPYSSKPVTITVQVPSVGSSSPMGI
Experimental: as §1

T7 sequence (P08637 17-208 F176V): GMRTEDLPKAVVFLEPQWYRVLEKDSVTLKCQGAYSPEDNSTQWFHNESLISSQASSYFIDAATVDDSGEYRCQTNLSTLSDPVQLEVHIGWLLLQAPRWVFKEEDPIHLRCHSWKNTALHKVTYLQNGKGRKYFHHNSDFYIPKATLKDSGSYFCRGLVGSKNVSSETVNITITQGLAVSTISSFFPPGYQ
T1 sequence (A3RFZ7 21-206): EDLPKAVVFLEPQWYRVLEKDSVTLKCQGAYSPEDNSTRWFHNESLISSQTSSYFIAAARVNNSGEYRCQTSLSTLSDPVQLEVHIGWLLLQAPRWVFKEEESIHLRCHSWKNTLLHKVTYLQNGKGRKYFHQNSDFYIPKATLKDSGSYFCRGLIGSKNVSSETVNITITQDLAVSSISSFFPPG

| Binder | Kd [1] | Kd [2] | KD fold (SG1 = 1) [3] | KD fold (SG1 = 1) [4] | KD fold (SG1 = 1) [5] | KD fold (SG1 = 1) [6] | KD fold (SG1 = 1) [7] | KD fold (SG1 = 1) [8] | KD fold (SG1 = 1) [9] | KD fold (SG1 = 1) [10] |
| --- | --- | --- | --- | --- | --- | --- | --- | --- | --- | --- |
| MS1032LO06-SG1 (M103205H795-SG1/M103202L889-SK1) (antibody, human IgG1, kappa, Anti-latent myostatin antibody) heavy: not shown light: DIVMTQSPATLSLSPGERATLSCTSSQSVYHANWLSWFQQKPGQPPKLLIYWASTLAYGVPSRFSGSGSGTDFTLTISSLQPEDAATYYCAGGYGGGRYAFGQGTKVEIKRTVAAPSVFIFPPSDEQLKSGTASVVCLLNNFYPREAKVQWKVDNALQSGNSQESVTEQDSKDSTYSLSSTLTLSKADYEKHKVYACEVTHQGLSSPVTKSFNRGEC | 0.28 µM | 4.7 µM | 1 fold | 1 fold | 1 fold | 1 fold | 1 fold | 1 fold | 1 fold | 1 fold |
| MS1032LO06-MY352 (M103205H795-MY352/M103202L889-SK1) (antibody, human IgG1, kappa, name in EU numbering, Printed substitutions: G236N/H268D/Q311R/A330K/D413R (EU numbering); also called MS103205H795-MY352) heavy: QVTLKESGPVLVKPTETLTLTCTVSGIDLSHDDISWVRQAPGKGLEWVGIISYAGSTYYASWAKGRLTISKDTSKNQVVLTMTNMDPVDTATYYCARGVPAYSHGGDLWGQGTLVTVSSASTKGPSVFPLAPSSKSTSGGTAALGCLVKDYFPEPVTVSWNSGALTSGVHTFPAVLQSSGLYSLSSVVTVPSSSLGTQTYICNVNHKPSNTKVDKKVEPKSCDKTHTCPPCPAPELLNGPSVFLFPPKPKDTLMISRTPEVTCVVVDVSDEDPEVKFNWYVDGVEVHNAKTKPREEQYNSTYRVVSVLTVLHRDWLNGKEYKCKVSNKALPKPIEKTISKAKGQPREPQVYTLPPSREEMTKNQVSLTCLVKGFYPSDIAVEWESNGQPENNYKTTPPVLDSDGSFFLYSKLTVRKSRWQQGNVFSCSVMHEALHNHYTQKSLSLSP light: DIVMTQSPATLSLSPGERATLSCTSSQSVYHANWLSWFQQKPGQPPKLLIYWASTLAYGVPSRFSGSGSGTDFTLTISSLQPEDAATYYCAGGYGGGRYAFGQGTKVEIKRTVAAPSVFIFPPSDEQLKSGTASVVCLLNNFYPREAKVQWKVDNALQSGNSQESVTEQDSKDSTYSLSSTLTLSKADYEKHKVYACEVTHQGLSSPVTKSFNRGEC | 4 µM | 1 µM | 0.7 fold | 0.6 fold | 4.7 fold | 3.5 fold | 0.06 fold | 0.07 fold | 4.6 fold | 3.9 fold |
| MS1032LO06-MY351 (M103205H795-MY351/M103202L889-SK1) (antibody, human IgG1, kappa, CH MY351 = SG1 with G236N/H268D/Q311R/A330K/D413K (EU numbering); also called MS103205H795-MY351) heavy: QVTLKESGPVLVKPTETLTLTCTVSGIDLSHDDISWVRQAPGKGLEWVGIISYAGSTYYASWAKGRLTISKDTSKNQVVLTMTNMDPVDTATYYCARGVPAYSHGGDLWGQGTLVTVSSASTKGPSVFPLAPSSKSTSGGTAALGCLVKDYFPEPVTVSWNSGALTSGVHTFPAVLQSSGLYSLSSVVTVPSSSLGTQTYICNVNHKPSNTKVDKKVEPKSCDKTHTCPPCPAPELLNGPSVFLFPPKPKDTLMISRTPEVTCVVVDVSDEDPEVKFNWYVDGVEVHNAKTKPREEQYNSTYRVVSVLTVLHRDWLNGKEYKCKVSNKALPKPIEKTISKAKGQPREPQVYTLPPSREEMTKNQVSLTCLVKGFYPSDIAVEWESNGQPENNYKTTPPVLDSDGSFFLYSKLTVKKSRWQQGNVFSCSVMHEALHNHYTQKSLSLSP light: DIVMTQSPATLSLSPGERATLSCTSSQSVYHANWLSWFQQKPGQPPKLLIYWASTLAYGVPSRFSGSGSGTDFTLTISSLQPEDAATYYCAGGYGGGRYAFGQGTKVEIKRTVAAPSVFIFPPSDEQLKSGTASVVCLLNNFYPREAKVQWKVDNALQSGNSQESVTEQDSKDSTYSLSSTLTLSKADYEKHKVYACEVTHQGLSSPVTKSFNRGEC | 4.1 µM | 0.97 µM | 0.7 fold | 0.6 fold | 5 fold | 3.6 fold | 0.08 fold | 0.07 fold | 4.9 fold | 4 fold |
| MS1032LO06-MY201 (M103205H795-MY201/M103202L889-SK1) (antibody, human IgG1, kappa, CH MY201 = SG1 with G236N/H268D/A330K (EU numbering); also called MS103205H795-MY201) heavy: QVTLKESGPVLVKPTETLTLTCTVSGIDLSHDDISWVRQAPGKGLEWVGIISYAGSTYYASWAKGRLTISKDTSKNQVVLTMTNMDPVDTATYYCARGVPAYSHGGDLWGQGTLVTVSSASTKGPSVFPLAPSSKSTSGGTAALGCLVKDYFPEPVTVSWNSGALTSGVHTFPAVLQSSGLYSLSSVVTVPSSSLGTQTYICNVNHKPSNTKVDKKVEPKSCDKTHTCPPCPAPELLNGPSVFLFPPKPKDTLMISRTPEVTCVVVDVSDEDPEVKFNWYVDGVEVHNAKTKPREEQYNSTYRVVSVLTVLHQDWLNGKEYKCKVSNKALPKPIEKTISKAKGQPREPQVYTLPPSREEMTKNQVSLTCLVKGFYPSDIAVEWESNGQPENNYKTTPPVLDSDGSFFLYSKLTVDKSRWQQGNVFSCSVMHEALHNHYTQKSLSLSP light: DIVMTQSPATLSLSPGERATLSCTSSQSVYHANWLSWFQQKPGQPPKLLIYWASTLAYGVPSRFSGSGSGTDFTLTISSLQPEDAATYYCAGGYGGGRYAFGQGTKVEIKRTVAAPSVFIFPPSDEQLKSGTASVVCLLNNFYPREAKVQWKVDNALQSGNSQESVTEQDSKDSTYSLSSTLTLSKADYEKHKVYACEVTHQGLSSPVTKSFNRGEC | 3.7 µM | 0.85 µM | 0.9 fold | 0.8 fold | 5.8 fold | 4 fold | 0.02 fold | 0.08 fold | 5.6 fold | 4.9 fold |
